Reference: the supplement of paper PMC10567573

B1: MLL5 (parent)
chain: TYLCERCQPRNLDKERAVLLQRRK

Variants of: B1
Experiment: protein stability index of a GFP-peptide fusion (GPS, HEK-293T) (PSI 1-6); higher = more stable
Conditions: c terminus: a fixed tail appended
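Note: lentivirally expressed fusions sorted by FACS into six bins by GFP to DsRed ratio, PSI derived from sequencing read proportions per bin multiplied by bin number.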

Variant	protein stability index
TYLCERCQPRNLDKERAQLLQRRK [V18Q]	2.19
TYLCERCQPRNLDKERATLLQRRK [V18T]	2.82
TYLCERCQPRNLDKERAYLLQRRK [V18Y]	1.65
TYLCERCQPRNLDKERALLLQRRK [V18L]	3.05
TYLCERCQPRNLDKERAFLLQRRK [V18F]	1.96
TYLCERCQPRNLDKERAILLQRRK [V18I]	2.68
TYLCERCQPRNLDKERADLLQRRK [V18D]	2.73
TYLCERCQPRNLDKERAWLLQRRK [V18W]	2.2
TYLCERCQPRNLDKERAMLLQRRK [V18M]	2.19
TYLCERCQPRNLDKERAELLQRRK [V18E]	2.52
TYLCERCQPRNLDKERACLLQRRK [V18C]	2.11
TYLCERCQPRNLDKERANLLQRRK [V18N]	1.93
TYLCERCQPRNLDKERAPLLQRRK [V18P]	1.6
TYLCERCQPRNLDKERAHLLQRRK [V18H]	2.16
TYLCERCQPRNLDKERARLLQRRK [V18R]	3.18
TYLCERCQPRNLDKERASLLQRRK [V18S]	2.21
TYLCERCQPRNLDKERAALLQRRK [V18A]	1.81
TYLCERCQPRNLDKEHAVLLQRRK [R16H]	2.61
TYLCERCQPRNLDKEIAVLLQRRK [R16I]	1.94
TYLCERCQPRNLDKEAAVLLQRRK [R16A]	2.49
TYLCERCQPRNLDKEMAVLLQRRK [R16M]	3.23
TYLCERCQPRNLDKEPAVLLQRRK [R16P]	2.24
TYLCERCQPRNLDKEGAVLLQRRK [R16G]	2.32
TYLCERCQPRNLDKELAVLLQRRK [R16L]	3.06

Variant	protein stability index
TYLCERCQPRNLDKECAVLLQRRK [R16C]	1.45
TYLCERCQPRNLDKETAVLLQRRK [R16T]	2.25
TYLCERCQPRNLDKESAVLLQRRK [R16S]	1.36
TYLCERCQPRNLDKEFAVLLQRRK [R16F]	2.09
TYLCERCQPRNLDKEEAVLLQRRK [R16E]	1.92
TYLCERCQPRNLDKENAVLLQRRK [R16N]	2.01
TYLCERCQPRNLDKEWAVLLQRRK [R16W]	1.69
TYLCERCQPRNLDKEVAVLLQRRK [R16V]	2.27
TYLCERCQPRNLDKEYAVLLQRRK [R16Y]	1.79
TYLCERCQPRNLDKEKAVLLQRRK [R16K]	2.1
TYLCERCQPRNLDKPRAVLLQRRK [E15P]	2.12
TYLCERCQPRNLDKTRAVLLQRRK [E15T]	2.32
TYLCERCQPRNLDKLRAVLLQRRK [E15L]	2.05
TYLCERCQPRNLDKKRAVLLQRRK [E15K]	3.21
TYLCERCQPRNLDKNRAVLLQRRK [E15N]	1.6
TYLCERCQPRNLDKWRAVLLQRRK [E15W]	1.94
TYLCERCQPRNLDKSRAVLLQRRK [E15S]	2.46
TYLCERCQPRNLDKRRAVLLQRRK [E15R]	2.34
TYLCERCQPRNLDKQRAVLLQRRK [E15Q]	2.24
TYLCERCQPRNLDKHRAVLLQRRK [E15H]	2.71
TYLCERCQPRNLDKIRAVLLQRRK [E15I]	2.2
TYLCERCQPRNLDKERAVLLCRRK [Q21C]	2.02
TYLCERCQPRNLDKERQVLLQRRK [A17Q]	1.88
TYLCERCQPRNLDKERNVLLQRRK [A17N]	2.65

Variant	protein stability index
TYLCERCQPRNLDKERHVLLQRRK [A17H]	2
TYLCERCQPRNLDKERYVLLQRRK [A17Y]	2.18
TYLCERCQPRNLDKERPVLLQRRK [A17P]	1.77
TYLCERCQPRNLDKERCVLLQRRK [A17C]	2.08
TYLCERCQPRNLDKERTVLLQRRK [A17T]	1.95
TYLCERCQPRNLDKERLVLLQRRK [A17L]	1.45
TYLCERCQPRNLDKERKVLLQRRK [A17K]	2.26
TYLCERCQPRNLDKERGVLLQRRK [A17G]	1.78
TYLCERCQPRNLDKERVVLLQRRK [A17V]	2.42
TYLCERCQPRNLDKERWVLLQRRK [A17W]	2.16
TYLCERCQPRNLDKERDVLLQRRK [A17D]	2.25
TYLCERCQPRNLDKERMVLLQRRK [A17M]	2.58
TYLCERCQPRNLDKERSVLLQRRK [A17S]	2.32
TYLCERCQPRNLDKERFVLLQRRK [A17F]	2.07
TYLCERCQPRNLDKERAVLPQRRK [L20P]	2.08
TYLCERCQPRNLDKERAVLMQRRK [L20M]	2.4
TYLCERCQPRNLDKERAVLYQRRK [L20Y]	1.76
TYLCERCQPRNLDKERAVLAQRRK [L20A]	2.37
TYLCERCQPRNLDKERAVLGQRRK [L20G]	2.52
TYLCERCQPRNLDKERAVLCQRRK [L20C]	2.3
TYLCERCQPRNLDKERAVLSQRRK [L20S]	1.9
TYLCERCQPRNLDKERAVLDQRRK [L20D]	3.55
TYLCERCQPRNLDKERAVLNQRRK [L20N]	2.68
TYLCERCQPRNLDKERAVLEQRRK [L20E]	2.7

Variant	protein stability index
TYLCERCQPRNLDKERAVLFQRRK [L20F]	2.3
TYLCERCQPRNLDKERAVLWQRRK [L20W]	2.31
TYLCERCQPRNLDKERAVLHQRRK [L20H]	2.23
TYLCERCQPRNLDKERAVLTQRRK [L20T]	1.58
TYLCERCQPRNLDKERAVPLQRRK [L19P]	1.85
TYLCERCQPRNLDKERAVHLQRRK [L19H]	2.54
TYLCERCQPRNLDKERAVDLQRRK [L19D]	2.42
TYLCERCQPRNLDKERAVCLQRRK [L19C]	2.03
TYLCERCQPRNLDKERAVELQRRK [L19E]	2.76
TYLCERCQPRNLDKERAVYLQRRK [L19Y]	2.83
TYLCERCQPRNLDKERAVMLQRRK [L19M]	2.71
TYLCERCQPRNLDKERAVFLQRRK [L19F]	1.7
TYLCERCQPRNLDKERAVRLQRRK [L19R]	2.52
TYLCERCQPRNLDKERAVTLQRRK [L19T]	2.07
TYLCERCQPRNLDKERAVQLQRRK [L19Q]	2.54
TYLCERCQPRNLDKERAVNLQRRK [L19N]	2.08
TYLCERCQPRNLDKERAVGLQRRK [L19G]	3.37
TYLCERCQPRNLDKERAVSLQRRK [L19S]	2.9
TYLCERCQPRNLDKERAVVLQRRK [L19V]	1.96
TYLCERCQPRNLDKERAVALQRRK [L19A]	1.76
TYLCERCQPRNLDKERAVWLQRRK [L19W]	1.93
TYLCERCQPRNLDKERAVKLQRRK [L19K]	2.18
